Km data for one protein are collected here from ChEMBL document CHEMBL1156801, “Using NMR solvent water relaxation to investigate metalloenzyme-ligand binding interactions” (J Med Chem, 2010).

Substrate in data set [1]: CC[C@H](C)[C@H](NC(=O)[C@H](Cc1ccc(O)cc1)NC(=O)[C@@H]1CCCN1C(=O)[C@H](C)NC(=O)[C@H](CC(C)C)NC(=O)[C@H](CCSC)NC(=O)[C@H](CCC(=O)O)NC(=O)[C@H](CC(C)C)NC(=O)[C@H](CC(=O)O)NC(=O)[C@H](CC(C)C)NC(=O)[C@@H](N)CC(=O)O)C(=O)N1CCC[C@H]1C(=O)N[C@@H](CCSC)C(=O)N[C@@H](CC(=O)O)C(=O)N[C@@H](CC(=O)O)C(=O)N[C@@H](CC(=O)O)C(=O)N[C@@H](Cc1ccccc1)C(=O)N[C@@H](CCC(N)=O)C(=O)N[C@@H](CC(C)C)C(=O)O
The data set is described as follows: (§1) Hydroxylation activity of human PHD2.

Substrate in data set [2]: CC[C@H](C)[C@H](NC(=O)[C@@H](NC(=O)[C@H](CC(=O)O)NC(=O)CNC(=O)[C@H](C)NC(=O)[C@H](C)NC(=O)[C@@H]1CCCN1C(=O)[C@H](C)NC(=O)[C@H](CC(C)C)NC(=O)[C@H](CC(C)C)NC(=O)[C@@H](NC(=O)[C@H](CC(C)C)NC(=O)[C@H](C)NC(=O)[C@@H](N)CC(=O)O)[C@@H](C)O)[C@@H](C)O)C(=O)N[C@H](C(=O)N[C@@H](CO)C(=O)N[C@@H](CC(C)C)C(=O)N[C@@H](CC(=O)O)C(=O)N[C@@H](Cc1ccccc1)C(=O)O)[C@@H](C)CC
The description is as §1.

B1: Egl nine homolog 1 (Homo sapiens), Q9GZT9 (protein)
chain: MANDSGGPGGPSPSERDRQYCELCGKMENLLRCSRCRSSFYCCKEHQRQDWKKHKLVCQGSEGALGHGVGPHQHSGPAPPAAVPPPRAGAREPRKAAARRDNASGDAAKGKVKAKPPADPAAAASPCRAAAGGQGSAVAAEAEPGKEEPPARSSLFQEKANLYPPSNTPGDALSPGGGLRPNGQTKPLPALKLALEYIVPCMNKHGICVVDDFLGKETGQQIGDEVRALHDTGKFTDGQLVSQKSDSSKDIRGDKITWIEGKEPGCETIGLLMSSMDDLIRHCNGKLGSYKINGRTKAMVACYPGNGTGYVRHVDNPNGDGRCVTCIYYLNKDWDAKVSGGILRIFPEGKAQFADIEPKFDRLLFFWSDRRNPHEVQPAYATRYAITVWYFDADERARAKVKYLTGEKGVRVELNKPSDSVGKDVF
With B1, the results for the Km in data set [1] and in data set [2] were 37 µM and 44 µM, respectively.

A word on the Km: it is the concentration of substrate that gives half-maximal velocity.
